This is an account of results in paper PMC9522604.

In data set [1] the target is T1, Cas12c2 (UniProt PDB:7V94_1 1-1232).
T1 sequence: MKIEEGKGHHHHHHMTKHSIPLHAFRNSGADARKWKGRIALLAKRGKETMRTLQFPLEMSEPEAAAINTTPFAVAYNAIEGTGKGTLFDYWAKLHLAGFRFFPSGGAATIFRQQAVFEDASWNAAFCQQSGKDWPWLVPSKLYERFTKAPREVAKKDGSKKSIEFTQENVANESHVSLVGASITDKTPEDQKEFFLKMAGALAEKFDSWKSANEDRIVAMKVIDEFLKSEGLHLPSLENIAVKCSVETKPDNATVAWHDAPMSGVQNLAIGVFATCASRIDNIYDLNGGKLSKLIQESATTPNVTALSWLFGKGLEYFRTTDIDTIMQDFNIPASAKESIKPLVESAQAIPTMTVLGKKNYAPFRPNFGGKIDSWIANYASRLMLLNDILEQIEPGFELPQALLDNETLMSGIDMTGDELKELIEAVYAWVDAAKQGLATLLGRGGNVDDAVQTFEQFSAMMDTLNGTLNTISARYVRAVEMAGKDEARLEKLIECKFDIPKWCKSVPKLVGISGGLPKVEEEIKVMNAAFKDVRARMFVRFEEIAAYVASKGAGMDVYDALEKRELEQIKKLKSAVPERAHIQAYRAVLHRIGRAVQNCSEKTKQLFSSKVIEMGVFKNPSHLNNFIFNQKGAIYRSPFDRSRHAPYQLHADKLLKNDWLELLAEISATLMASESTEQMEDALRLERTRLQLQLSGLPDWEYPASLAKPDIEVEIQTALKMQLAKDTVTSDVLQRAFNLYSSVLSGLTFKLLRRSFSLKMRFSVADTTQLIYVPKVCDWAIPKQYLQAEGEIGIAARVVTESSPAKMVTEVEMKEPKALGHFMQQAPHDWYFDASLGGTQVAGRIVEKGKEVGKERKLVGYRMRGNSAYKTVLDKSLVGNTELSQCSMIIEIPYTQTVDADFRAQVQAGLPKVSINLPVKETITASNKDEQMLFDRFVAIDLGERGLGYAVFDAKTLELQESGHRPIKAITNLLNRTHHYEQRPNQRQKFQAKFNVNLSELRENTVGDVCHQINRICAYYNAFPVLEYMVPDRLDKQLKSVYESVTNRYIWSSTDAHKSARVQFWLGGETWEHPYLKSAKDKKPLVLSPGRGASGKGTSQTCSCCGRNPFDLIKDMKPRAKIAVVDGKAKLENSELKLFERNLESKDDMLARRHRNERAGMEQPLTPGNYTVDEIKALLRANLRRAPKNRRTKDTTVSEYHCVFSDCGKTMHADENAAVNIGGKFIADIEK
Nature of the data set: cryo-EM.

Data set [2] concerns the target T1, Cas12c2. Nature of the data set: cryo-EM. The source holds these as a separate data set.

Like-named read-outs stand apart in the source and are kept apart here.

B1: Cas12c2 sgRNA (112 nt) (structured_RNA)
RNA: GGAUACCACCCGUGCAUUUCUGGAUCAAUGAUCCGUACCUCAAUGUCCGGGCGCGCAGCUAGAGCGACCUGAAGAAAUUCAGGUUGGGUUUGAGGGGAAAUUAGGUGCGCUU
In the case of B1, the binding result with Cas12c2 [1] is recorded as “binds”.

B2: sgRNA + 33-bp target DNA, TG PAM (guide/target strand/non-target strand) (mixed)
RNA: GGAUACCACCCGUGCAUUUCUGGAUCAAUGAUCCGUACCUCAAUGUCCGGGCGCGCAGCUAGAGCGACCUGAAGAAAUUCAGGUUGGGUUUGAGGGGAAAUUAGGUGCGCUU
DNA 1: AGGTTGCCAAGCGCACCTAATTTCCCATTTTAG
DNA 2: CTAAAATGGGAAATTAGGTGCGCTTGGCAACCT
Turning to B2, the binding result with Cas12c2 [2] is “binds”.
